According to patent US20220144922A1 (Adimab, published 2022):

B1: ADI-15667 (antibody, V domains shown)
VH: EVQLVESGGGLVQPGGSLRLSCAASGFTFSDFSMSWVRQAPGKGLEWVSLIKSSGYAYYADSVRGRFTISRDNSKNTLYLQMNSLRAEDTAIYYCAKDADFWSGAAYNGGYNFDSWGQGTLVTVSS
VL: DIQMTQSPATLSVFPGDRATLSCRASQSVGSNLAWYQQKPGQAPRLLIFGASTRATGIPARFSGSGSGTEFTLTISSLQSEDFAVYYCQQYHNWPPLTFGGGTKVDIK
notes: IgG
B2: ADI-15577 (antibody, V domains shown)
VH: QVQLVQSGAEVKKPGSSVKVSCKASGGTFGSYAISWVRQAPGQGLEWMGGTIPIFGTADHAQKFQGRVTITADKSTSTAYMELSSLRSEDTAVYYCARGVFRVGCSDTSCLKNYYGTDVWGQGTTVTVSS
VL: QSVLIQPASVSGSPGQSITVSCTGSSGDVGAYKYVSWYQQHPGRGPKLIIYDVSARPSGISDRFSGSKSGNTASLTISGLQAEDEADYYCSSYSSSSTLVVFGGGTKVTVL
notes: IgG
B3: ADI-15582 (antibody, V domains shown)
VH: QVQLVQSGGEVKKPGASVKVSCKASGYTFISYGITWVRQAPGQGPEWMGWISPYNGDTNYAQKLQGRVTMTTDTSTTTAYMELRSLRSDDTAIYYCARRYDILTGGGWFDSWGQGTLVTVSS
VL: DIVMTQSPSSLSASVGDRVTINCRASQSIISYLNWYQQKPGKAPELLIYAASSLQSGVPSRFSGSGSGTEFTLTISSLQPEDFATYYCQQSYSTPLSFGPGTKVEIK
notes: IgG
B4: ADI-15593 (antibody, V domains shown)
VH: QVQLVQSGGGLVRPGGSLRLSCAASGFMFSTYSMNWLRTVPGKGLEWVSSISGSSSHIYYADSVKGRFTISRDNTKNSLYLQMNSLRPEDTALYYCARYFGDYSGLGNYYYYGMDVWGQGTTVTVSS
VL: DIVMTQSPVSLPVTPGEPASISCRSSQSLLHSNGNNYLDWYLQRPGQSPQLLIYLGSNRASGVPDRFSGSGSGTDFTLRISRVEAEDVGVYYCMQALQTPRFGGGTKVEIK
notes: IgG; also called Antibody Number 160
B5: ADI-15588 (antibody, V domains shown)
VH: EVQLVESGPGLVKPSETLSLICRVFGGSVRRGDYNWNWIRQPPGKGLEWIGYIDYSGTTKYNPSLKSRVTISEDTSRNQFSLELRSVTAADTAMYYCARDVGSTPYNYYGMDVWGQGTTVTVSS
VL: EIVLTQSPGTLSLSPGERATLSCRASQTIKNNYLAWYQQKPGQAPRLLMYGVSSRPTGIPDRFSGSGSGTDFSLTIDRLEPEDFAVYYCQQFGRSPELTFGGGTKVEIK
notes: IgG; also called Antibody Number 155
B6: ADI-15556 (antibody, V domains shown)
VH: QVQLVQSGAEVKKPGSSVKVSCKASGGNVNIYGISWVRQAPGQGLEWMGGIIPIYDTTKYAQKFQDRVTITADKSTSTAYMELSSLRSEDTAVYFCARDLDYDILTGYSVNYYYYGMDVWGQGTTVTVSS
VL: QSVLTQPPSVSGAPGQRVTISCTGSSSNIGAGYDVHWYQQLPGTAPKLLIYGNINRPSGVPDRFSGSKSGTSASLAITGLQAEDEADYYCQSCDSSLSGWVFGGGTKLTIL
notes: IgG
B7: ADI-15006 (antibody, V domains shown)
VH: EVQLVESGPGLVKPSGTLSLTCTVSGDSMSDYYWSWIRQSPGRGLEWLGYIYYDGSTNYNPSLKGRGTISIDTSKSQFSLTLSSVKAADTAVYYCARGKYYDRGGYYLFYLDYWGQGILVTVSS
VL: DIRLTQSPSSLSASVGDRVTITCRASQTIASYVNWYQQKPGKAPKLLIYAASSLQDGVPSRFSGSGSGTDFALTISSLQPEDFAIYFCQQSYSTPIFTFGPGTKVEIK
notes: IgG; also called Antibody Number 125

How the values were obtained:
[1] = target: RSV F protein of subtype B strain 18537, on virus (respiratory syncytial virus subtype B …, UniProt P13843 26-574); test: cell-based or functional assay
[2] = target: RSV F protein of subtype A strain A2, on virus (respiratory syncytial virus subtype A …, UniProt P03420 26-574); test: cell-based or functional assay
[3] = target: T1, prefusion-stabilized RSV F ectodomain (DS-Cav1), subtype B (respiratory syncytial virus subtype B); test: BLI, IgG on sensor
T1 construct: extracellular domain; also called Prefusion subtype B
Protocol: (§1) IgG binding to DS-Cav1 and FA FP was determined by BLI measurements using a FortéBio Octet HTX instrument (Pall Life Sciences). […] Data was analyzed using the ForteBio Data Analysis Software 7. The data was fit to a 1:1 binding model to calculate an association and dissociation rate, and KD was calculated using the ratio kd/kₐ.

[4] = target: T2, postfusion RSV F ectodomain (F ΔFP), subtype A (respiratory syncytial virus subtype A, UniProt P03420 26-109; P03420 147-524); test: BLI, IgG on sensor
T2 construct: extracellular domain; also called Postfusion subtype A
Protocol: as §1

[5] = target: T3, postfusion RSV F ectodomain, subtype B (respiratory syncytial virus subtype B); test: BLI, IgG on sensor
T3 construct: extracellular domain; also called Postfusion subtype B
Protocol: as §1

Binder | Neut IC50 (ug/ml) subtype B [1] [µg/mL] | Neut IC50 (ug/ml) subtype A [2] [µg/mL] | Kd [3] [pM] | Kd [4] [pM] | Kd [5] [pM]
B1 | 0.048 | 0.039 | 333 | 231 | 208
B2 | > 10 | > 10 | 4660 | 779 | 679
B3 | 6.74 | 2.22 | 2320 | 385 | 295
B4 | > 10 | > 10 | 3950 | 507 | 761
B5 | 0.234 | 0.094 | 427 | 353 | 953
B6 | 0.081 | 0.055 | 2200 | 247 | 190
B7 | > 10 | 19.1 | 4200 | 243 | 3610
